B1: Q99PG0 (protein, UniProt Q99PG0 1-398, looked up)
chain: MGKTISLLISVVLVAYYLYIPLPDAIEEPWKVVWETAFVKIGTDLASFGELLGISHFMETIQLLMSFQEVPPTSDEHVTVMETAFDSVPVRIYIPKRKSMALRRGLFYIHGGGWCLGSAAHFSYDTLSRWTAHKLDAVVVSTDYGLAPKHHFPRQFEDVYRSLRWFLQEDVLEKYGVDPRRVGVSGDSAGGNLAAAVTQQLIQDPDVKIKLKVQALIYPALQALDTNVPSQQEGSHFPVLTRSLMVRFWSEYFTTDRGLEKAMLLNQHVPMESSHLLQFVNWSSLLPERYKKSPVYKNPTPGSSELAQKYPGFIDVKACPLLANDNILHHLPKTYIITCQYDVLRDDGLMYVKRLQNVGVHVTHHHVEDGFHGTFSFPGLKLSERMKNQYLSWLIKNL
modifications: full-length
B2: Q9CPY1 (protein, UniProt Q9CPY1 1-128, looked up)
chain: MAGSVPWAASRRLWGWVPSACRSFSLGVPRLAFVRLTLPPPKVVDRWNEKRALFGVYDNIGILGNFEKHPKELIKGPVWLRGWRGNELQRCVRKKKFVGNRMFIEDLHNLNKRISYLYKHFNRHGKYR
modifications: full-length
B3: Q9CQU5 (protein, UniProt Q9CQU5 1-252, looked up)
chain: MADAEKNAVAEKNNAVATKEVLAEAAAILEPVGLQEEAELPAKIMEEFMRNSRKKDKLLCSQLQVVNFLQTFLAQEDTEQSPDALASEDASRQKATETKEQWKDMKATYMDHVDVIKCALSEALPQVKEAHRKYTELQKAFEQLEAKKRVLEEKLQLAQKQWVLQQKRLQNLTKISAEVKRRRKRALEKLDGSHQELETLKQQAGQEQEKLQRNQSYLQLLCSLQNKLVISEGKAEDKDVKGRALTAKSKSP
modifications: full-length
B4: Q9CVI2 (protein, UniProt Q9CVI2 1-245, looked up)
chain: MGKRDNRVAYMNPIAMARSRGPIQSSGPTIQDYLNRPRPTWEEVKEQLEKKKKGSKALAEFEEKMNENWKKELEKHREKLLSGNESSSKKRQKKKKEKKKSGRYSSSSSSSSDSSSSSSDSEDEDKKQTKRRKKKKSRCHKSPESSGSDSASDSKDGSKKKKKSKDVTEREKDTKGLSKKRKMYEDKPLSSESLSESDCGEVQAKRKKSGEERERTTDKAKKRRKHKKHSKKKKKKAASSSSDSP
modifications: full-length
B5: Q9CWY4 (protein, UniProt Q9CWY4 1-129, looked up)
chain: MQSPLTIPVPVPVLRLPRGPDGFSRGFASDGRRTILRPEVGEGHIQDPPESQEQRARATLRERYLRSLLAMVGHPVSFTLHEGVHVTAQFGATDLDVANFYVSQLQTPIGVQAEALLRCSDIISYSFKL
modifications: full-length
B6: Q9CXC3 (protein, UniProt Q9CXC3 1-338, looked up)
chain: MKLPLTFCRLLSRLNRFSVKASPPVSFSTFSYLCSQKKKNSYEAVDQAKYSRLVRSVLSRGPAQTPESLFKEDDVLYGPVSKHKAAEPEPQARVPQHCFPIFNEERTGKPHTDASSSPLKIPLQRNSIPSVTRILQQTMPPEQSFFLERWKERMVLELGEDGFAEYTSNVFLQGKQFHKALESILSPQENLTGGEEHPQCGYIESIQHILTEISGVQALESAVQHEALKYVGLLDCVAEYRGKLCVIDWKTSEKPKPLIRNTYDNPLQVVAYMGAVNHDAHYSFQVQCGLIVVAYKDGSPAHPHFMDEELCSKYWAKWLLRLEEYTEKQKNLSAPEPA
modifications: full-length
B7: Q9CXS4 (protein, UniProt Q9CXS4 1-252, looked up)
chain: MRRTRSAVATGPREQRRSGATGGLSGGESRAQRSRSRTRAGAGGGGGAVGPQPSAKPRPKPPPRAQEAAAEEPPPAVTPAASVSALDLGEQRERWETFQKRQRLSFEGAAKLLLDTFEYQGLVKHTGGCHCGAVRFEVWASADLHIFDCNCSICKKKQNRHFIVPASRFKLLKGAESITTYTFNTHKAQHTFCKRCGVQSFYTPRSNPGGFGIAPHCLDEGTVRSVVTEEFNGSDWERAMKEHKTIKNMSKE
modifications: full-length
B8: Q9CZT6 (protein, UniProt Q9CZT6 1-276, looked up)
chain: MADDLGDEWWENQPAAASSPEQSGGEEGGDTEMTQQDTAPVPEKTQQPTECFLTQTKEPKAEDSRKTRKWKKKKISDILAKSEPKPGTPEDLQKLIRDHYSSSRSVIELEELHLPDSCFLKANDLTHSLSSYLKEICPKWVKLRKTHNEKKSVLMLILCSSAVRALELIRSLTAFKGDAKVMKLFAKHIKVQEQVKLLEKRVIHLGVGTPGRIKELVKQDGLHLNPLKFLVFDWNWRDQKLRRMMDIPEIRKEVFELLDMGVFSLCKSDSLKLGLF
modifications: full-length
B9: Q9D009 (protein, UniProt Q9D009 1-231, looked up)
chain: MSLPVVRLVWLGRVHYSELLALQEHWLRRLQADPRPGTLSGTKAGVLLVCEPAGPVYTGGLRGGLTPEETTRLRALGAEVRATGRGGLATFHGPGQLLCHPVLDLRLLGLRLRTHVAALEACAVRLCELRGLQGARARPPPYTGVWLGERKICAIGVRCGRHITSHGLALNCSTDLTWFEHIVPCGLVGTGVTSLSEALQRLVTVDEVMPSFLVAFKETFKCTLISEDSPS
modifications: full-length
B10: Q9D1C1 (protein, UniProt Q9D1C1 1-179, looked up)
chain: MASQNRDPAAASVAAVRKGAEPCGGAARGPVGKRLQQELMILMTSGDKGISAFPESDNLFKWVGTIHGAAGTVYEDLRYKLSLEFPSGYPYNAPTVKFLTPCYHPNVDTQGNICLDILKDKWSALYDVRTILLSIQSLLGEPNIDSPLNTHAAELWKNPTAFKKYLQETYSKQVSSQDP
modifications: full-length
B11: Q9D3P9 (protein, UniProt Q9D3P9 1-169, looked up)
chain: MRGMNLQLVCLTLLAFSSWSLCSDSEEDVRALEADLLTNMHTSKISKASPPSWKMTLLNVCSLINNVNSPAEEAGDMHDDDLVGKRKLPLVLDGFSLEAMLTIFQLQKICRSRAFQHWEIIQEDILDNVNDKNEKEEVIKRKIPYILKRQLYENKPRRPYILKRGSYYY
modifications: full-length
B12: Q9D6F4 (protein, UniProt Q9D6F4 1-552, looked up)
chain: MVSVQKVPAIALCSGVSLALLHFLCLAACLNESPGQNSKDEKLCPENFTRILDSLLDGYDNRLRPGFGGPVTEVKTDIYVTSFGPVSDVEMEYTMDVFFRQTWIDKRLKYDGPIEILRLNNMMVTKVWTPDTFFRNGKKSVSHNMTAPNKLFRIMRNGTILYTMRLTISAECPMRLVDFPMDGHACPLKFGSYAYPKSEMIYTWTKGPEKSVEVPKESSSLVQYDLIGQTVSSETIKSITGEYIVMTVYFHLRRKMGYFMIQTYIPCIMTVILSQVSFWINKESVPARTVFGITTVLTMTTLSISARHSLPKVSYATAMDWFIAVCFAFVFSALIEFAAVNYFTNIQMQKAKKKISKPPPEVPAAPVLKEKHTETSLQNTHANLNMRKRTNALVHSESDVKSRTEVGNHSSKTSAVQESSEATPKAHLASSPNPFSRANAAETMSAAARGLSSAASPSPHGTLRPASLGSASTRPAFGSRLGRIKTTVNTTGAAGNVSATPPPPAPPPSGSGTSKIDKYARILFPVTFGAFNMVYWVVYLSKDTMEKSESLM
modifications: full-length
B13: Q9D6X6 (protein, UniProt Q9D6X6 1-382, looked up)
chain: MAGIPGLFILLVLLCVFMQVSPYTVPWKPTWPAYRLPVVLPQSTLNLAKADFDAKAKLEVSSSCGPQCHKGTPLPTYEEAKQYLSYETLYANGSRTETRVGIYILSNGEGRARGRDSEATGRSRRKRQIYGYDGRFSIFGKDFLLNYPFSTSVKLSTGCTGTLVAEKHVLTAAHCIHDGKTYVKGTQKLRVGFLKPKYKDGAGGDNSSSSAMPDKMKFQWIRVKRTHVPKGWIKGNANDIGMDYDYALLELKKPHKRQFMKIGVSPPAKQLPGGRIHFSGYDNDRPGNLVYRFCDVKDETYDLLYQQCDAQPGASGSGVYVRMWKRPQQKWERKIIGIFSGHQWVDMNGSPQDFNVAVRITPLKYAQICYWIKGNYLDCREG
modifications: full-length

Tested on: intracellular proteome of ENR+CD and ENR organoids
Assay: LC-MS/MS TMT proteomics of ENR+CD versus ENR organoids
Format: cell-based, C57BL/6 mice
Conditions: for M1-1 Log2 Median Normalized / M1-2 Log2 Median Normalized / M2-1 Log2 Median Normalized / M2-2 Log2 Median Normalized: protein abundance ratio ENR+CD versus ENR organoids, LC-MS/MS TMT proteomics; for M1-1 Log2 Median Normalized: sample pair M1-1; for M1-2 Log2 Median Normalized: sample pair M1-2; for M2-1 Log2 Median Normalized: sample pair M2-1; for M2-2 Log2 Median Normalized: sample pair M2-2; for change: up = enriched in ENR+CD, down = enriched in ENR, FDR<0.05 and log fold change cut-off; for Average logFC: ENR+CD versus ENR organoids, sample pairs in aggregate (n=4, 2 technical replicates from two biological donors)

Row | Molecule | M1-1 Log2 Median Normalized | M1-2 Log2 Median Normalized | M2-1 Log2 Median Normalized | M2-2 Log2 Median Normalized | change | Average logFC
1 | B1 | −1.606 | −1.392 | −2.1105 | −1.558 | down | 
2 | B2 | −0.801 | −0.766 | −2.0015 | −1.543 | down | −1.278
3 | B3 | −1.159 | −0.699 | −1.1625 | −1.13 | down | −1.13
4 | B4 | −1.385 | −1.072 | −1.0115 | −1.275 | down | −1.186
5 | B5 | −0.742 | −0.855 | −1.6895 | −1.387 | down | −1.168
6 | B6 | −1.486 | −0.854 | −1.7905 | −1.7 | down | −1.487
7 | B7 | −1.106 | −1.141 | −0.9445 | −1.649 | down | −1.1404
8 | B8 | −1.275 | −0.965 | −0.8705 | −1.413 | down | −1.131
9 | B9 | −0.836 | −2.401 | −2.1745 | −2.621 | down | −2.176
10 | B10 | −1.316 | −0.925 | −1.1505 | −1.63 | down | −1.255
11 | B11 | 1.731 | 0.439 | 0.8595 | 2.111 | up | 1.285
12 | B12 | 0.695 | 0.98 | 1.4175 | 1.959 | up | 1.263
13 | B13 | 1.521 | 1.393 | 0.7475 | 1.055 | up | 1.179

From patent US11994512B2, “Single-cell genomic methods to generate ex vivo cell systems that recapitulate in vivo biology with improved fidelity” (Massachusetts Institute of Technology, priority 2018, dated 2024)
